T1: PUF4 RNA-binding domain (Saccharomyces cerevisiae, UniProt P25339 537-888)
T1 sequence: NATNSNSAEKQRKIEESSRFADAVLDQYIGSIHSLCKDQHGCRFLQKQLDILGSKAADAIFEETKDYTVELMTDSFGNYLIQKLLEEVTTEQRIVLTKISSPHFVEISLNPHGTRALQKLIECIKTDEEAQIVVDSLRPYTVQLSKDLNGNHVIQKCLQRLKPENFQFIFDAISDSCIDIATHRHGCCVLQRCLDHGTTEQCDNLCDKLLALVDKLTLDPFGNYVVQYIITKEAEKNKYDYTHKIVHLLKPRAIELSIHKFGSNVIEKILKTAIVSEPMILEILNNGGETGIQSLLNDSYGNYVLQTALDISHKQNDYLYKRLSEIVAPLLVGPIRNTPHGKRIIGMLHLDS


Target: T1, PUF4 RNA-binding domain
Assay: Mg; RNA-MaP; 20 mM Na-HEPES pH 7.4, 30 mM KOAc, 0.75 mM MgCl2, 0.1% Tween-20, 5% glycerol, 0.1 mg/mL BSA, 2 mM DTT; 25 C; 0.0125-409.6 nM protein
Details: tags: N-His6-TEV cleaved; C-SNAP kept, Cy3B-labelled; label: tethered on chip by stalled RNA polymerase

Binder	Kd [nM]
Id_ii_S4_P3E.3_K3.2_C3.2_[T-1C]_H3.2_A3.1_F3.1_T3.2_[T9A]_[A10C] (ssRNA) RNA: UUUGACAACUGAUCGUUCUUUCUCCUAUAUAUAACUUCUUUCUCGAUCAGUUGUCUUU	467
Id_ii_S4_P3E.3_K3.2_C3.2_[T-1A]_H3.2_A3.1_F3.1_T3.2_[T9G]_[A10C] (ssRNA) RNA: UUUGACAACUGAUCGUUCUUUCUCAUAUAUAUAGCUUCUUUCUCGAUCAGUUGUCUUU	243
Id_ii_S4_P3E.4_K3.3_C3.2_[C-2T]_[T-1A]_H3.3_A3.1_F3.1_T3.2_[A10T] (ssRNA) RNA: UUUGACAACUGAUCGUUCUUUCUUAACACUAUAUUUUCUUUCUCGAUCAGUUGUCUUU	1310
Id_ii_S4_P3E.3_K3.2_C3.2_[C-2A]_H3.2_A3.1_F3.1_T3.2_[A10G] (ssRNA) RNA: UUUGACAACUGAUCGUUCUUUCUAUUAUAUAUAUGUUCUUUCUCGAUCAGUUGUCUUU	978
Id_ii_S4_P3E.3_K3.2_C3.2_[C-2A]_[T-1A]_H3.2_A3.1_F3.1_T3.2_[A10C] (ssRNA) RNA: UUUGACAACUGAUCGUUCUUUCUAAUAUAUAUAUCUUCUUUCUCGAUCAGUUGUCUUU	296
Id_ii_S4_P3E.3_K3.2_C3.2_[C-2A]_H3.2_A3.1_F3.1_T3.2_[A10C] (ssRNA) RNA: UUUGACAACUGAUCGUUCUUUCUAUUAUAUAUAUCUUCUUUCUCGAUCAGUUGUCUUU	134
Id_ii_S4_P3E.4_K3.3_C3.2_[C-2G]_[T-1C]_H3.3_A3.1_F3.1_T3.2_[T9A]_[A10T] (ssRNA) RNA: UUUGACAACUGAUCGUUCUUUCUGCACACUAUAAUUUCUUUCUCGAUCAGUUGUCUUU	60.5
Id_ii_S4_P3E.3_K3.2_C3.2_H3.2_A3.1_F3.1_T3.2_[A10T] (ssRNA) RNA: UUUGACAACUGAUCGUUCUUUCUCUUAUAUAUAUUUUCUUUCUCGAUCAGUUGUCUUU	56.4
Id_ii_S4_P3E.3_K3.2_C3.2_[C-2A]_H3.2_A3.1_F3.1_T3.2_[T9A] (ssRNA) RNA: UUUGACAACUGAUCGUUCUUUCUAUUAUAUAUAAAUUCUUUCUCGAUCAGUUGUCUUU	831
Id_ii_S4_P3E.3_K3.2_C3.2_H3.2_A3.1_F3.1_T3.2_[A10G] (ssRNA) RNA: UUUGACAACUGAUCGUUCUUUCUCUUAUAUAUAUGUUCUUUCUCGAUCAGUUGUCUUU	276
Id_ii_S4_P3E.3_K3.2_C3.2_[C-2A]_[T-1A]_H3.2_A3.1_F3.1_T3.2_[T9A]_[A10C] (ssRNA) RNA: UUUGACAACUGAUCGUUCUUUCUAAUAUAUAUAACUUCUUUCUCGAUCAGUUGUCUUU	445
Id_ii_S4_P3E.3_K3.2_C3.2_[C-2A]_[T-1A]_H3.2_A3.1_F3.1_T3.2_[T9A]_[A10T] (ssRNA) RNA: UUUGACAACUGAUCGUUCUUUCUAAUAUAUAUAAUUUCUUUCUCGAUCAGUUGUCUUU	584
Id_ii_S4_P3E.3_K3.2_C3.2_[T-1G]_H3.2_A3.1_F3.1_T3.2_[T9G]_[A10C] (ssRNA) RNA: UUUGACAACUGAUCGUUCUUUCUCGUAUAUAUAGCUUCUUUCUCGAUCAGUUGUCUUU	194
Id_ii_S4_P3E.3_K3.2_C3.2_[T-1C]_H3.2_A3.1_F3.1_T3.2_[T9C]_[A10C] (ssRNA) RNA: UUUGACAACUGAUCGUUCUUUCUCCUAUAUAUACCUUCUUUCUCGAUCAGUUGUCUUU	244
Id_ii_S4_P3E.3_K3.2_C3.2_[T-1G]_H3.2_A3.1_F3.1_T3.2_[T9A] (ssRNA) RNA: UUUGACAACUGAUCGUUCUUUCUCGUAUAUAUAAAUUCUUUCUCGAUCAGUUGUCUUU	404
Id_ii_S4_P3E.4_K3.3_C3.2_[C-2T]_[T-1C]_H3.3_A3.1_F3.1_T3.2_[T9C]_[A10G] (ssRNA) RNA: UUUGACAACUGAUCGUUCUUUCUUCACACUAUACGUUCUUUCUCGAUCAGUUGUCUUU	> 2300
Id_ii_S4_P3E.4_K3.3_C3.2_[C-2G]_H3.3_A3.1_F3.1_T3.2_[T9C]_[A10C] (ssRNA) RNA: UUUGACAACUGAUCGUUCUUUCUGUACACUAUACCUUCUUUCUCGAUCAGUUGUCUUU	1.46
UCUCUUUUUAGUAUUAUCUCUU (ssRNA) [Ib_S1_P5E.1_K5.1_C5.1_H5.1_[G2T]_A5.1_[T5G]_F5.1_T5.1]	> 2300
UCUCUUAGUAUUCUUAUCUCUU (ssRNA) [Ib_S1_P5E.1_K5.1_C5.1_H5.1_[T1A]_A5.1_[A7C]_F5.1_T5.1]	1460
UCUCUUUCUACUAUUAUCUCUU (ssRNA) [Ib_S1_P5E.1_K5.1_C5.1_H5.1_[G2C]_A5.1_[T5C]_F5.1_T5.1]	> 2300
UCUCUUAGUAUUUUUAUCUCUU (ssRNA) [Ib_S1_P5E.1_K5.1_C5.1_H5.1_[T1A]_A5.1_[A7T]_F5.1_T5.1]	1470
UCUCUUUGUAUCAUUAUCUCUU (ssRNA) [Ia_S1_P5E.1_K5.1_C5.1_H5.1_A5.1_[T6C]_F5.1_T5.1]	6.62
UCUCUUUCUAAUAUUAUCUCUU (ssRNA) [Ib_S1_P5E.1_K5.1_C5.1_H5.1_[G2C]_A5.1_[T5A]_F5.1_T5.1]	> 2300
Id_ii_S4_P3E.4_K3.3_C3.2_[C-2T]_[T-1C]_H3.3_A3.1_F3.1_T3.2_[A10C] (ssRNA) RNA: UUUGACAACUGAUCGUUCUUUCUUCACACUAUAUCUUCUUUCUCGAUCAGUUGUCUUU	> 2300

Source: PMC9352680, “A comprehensive thermodynamic model for RNA binding by the Saccharomyces cerevisiae Pumilio protein PUF4”
